Source: the supplement of paper PMC5998384

System: HeLa Kyoto
Assay: thermal stability score vs G1/S (z-score of summed log2 fold changes over temperatures); higher = more thermally stable than in G1/S
[1] = cell cycle stage: early G1 (4.5 h after nocodazole release)
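Also: synchronized HeLa Kyoto cells, proteins quantified by TMT10plex mass spectrometry, three biological replicates, mitosis taken 0.5 h after nocodazole release, G1/S directly after double thymidine block.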

Sequence	thermal stability score [1]	thermal stability score (cell cycle stage: mitosis)
MGPEALSSLLLLLLVASGDADMKGHFDPAKCRYALGMQDRTIPDSDISASSSWSDSTAARHSRLESSDGDGAWCPAGSVFPKEEEYLQVDLQRLHLVALVGTQGRHAGGLGKEFSRSYRLRYSRDGRRWMGWKDRWGQEVISGNEDPEGVVLKDLGPPMVARLVRFYPRADRVMSVCLRVELYGCLWRDGLLSYTAPVGQTMYLSEAVYLNDSTYDGHTVGGLQYGGLGQLADGVVGLDDFRKSQELRVWPGYDYVGWSNHSFSSGYVEMEFEFDRLRAFQAMQVHCNNMHTLGARLPGGVECRFRRGPAMAWEGEPMRHNLGGNLGDPRARAVSVPLGGRVARFLQCRFLFAGPWLLFSEISFISDVVNNSSPALGGTFPPAPWWPPGPPPTNFSSLELEPRGQQPVAKAEGSPTAILIGCLVAIILLLLLIIALMLWRLHWRRLLSKAERRVLEEELTVHLSVPGDTILINNRPGPREPPPYQEPRPRGNPPHSAPCVPNGSALLLSNPAYRLLLATYARPPRGPGPPTPAWAKPTNTQAYSGDYMEPEKPGAPLLPPPPQNSVPHYAEADIVTLQGVTGGNTYAVPALPPGAVGDGPPRVDFPRSRLRFKEKLGEGQFGEVHLCEVDSPQDLVSLDFPLNVRKGHPLLVAVKILRPDATKNARNDFLKEVKIMSRLKDPNIIRLLGVCVQDDPLCMITDYMENGDLNQFLSAHQLEDKAAEGAPGDGQAAQGPTISYPMLLHVAAQIASGMRYLATLNFVHRDLATRNCLVGENFTIKIADFGMSRNLYAGDYYRVQGRAVLPIRWMAWECILMGKFTTASDVWAFGVTLWEVLMLCRAQPFGQLTDEQVIENAGEFFRDQGRQVYLSRPPACPQGLYELMLRCWSRESEQRPPFSQLHRFLAEDALNTV [DDR1]	0.0856	0.38
MGSQGSPVKSYDYLLKFLLVGDSDVGKGEILESLQDGAAESPYAYSNGIDYKTTTILLDGRRVKLELWDTSGQGRFCTIFRSYSRGAQGILLVYDITNRWSFDGIDRWIKEIDEHAPGVPRILVGNRLHLAFKRQVPTEQARAYAEKNCMTFFEVSPLCNFNVIESFTELSRIVLMRHGMEKIWRPNRVFSLQDLCCRAIVSCTPVHLIDKLPLPVTIKSHLKSFSMANGMNAVMMHGRSYSLASGAGGGGSKGNSLKRSKSIRPPQSPPQNCSRSNCKIS [RAB40C]	-0.589	-0.612
MLLLVTSLLLCELPHPAFLLIPEKSDLRTVAPASSLNVRFDSRTMNLSWDCQENTTFSKCFLTDKKNRVVEPRLSNNECSCTFREICLHEGVTFEVHVNTSQRGFQQKLLYPNSGREGTAAQNFSCFIYNADLMNCTWARGPTAPRDVQYFLYIRNSKRRREIRCPYYIQDSGTHVGCHLDNLSGLTSRNYFLVNGTSREIGIQFFDSLLDTKKIERFNPPSNVTVRCNTTHCLVRWKQPRTYQKLSYLDFQYQLDVHRKNTQPGTENLLINVSGDLENRYNFPSSEPRAKHSVKIRAADVRILNWSSWSEAIEFGSDDGNLGSVYIYVLLIVGTLVCGIVLGFLFKRFLRIQRLFPPVPQIKDKLNDNHEVEDEIIWEEFTPEEGKGYREEVLTVKEIT [CSF2RA]	-1.1	-1.35
MLRCGGRGLLLGLAVAAAAVMAARLMGWWGPRAGFRLFIPEELSRYRGGPGDPGLYLALLGRVYDVSSGRRHYEPGSHYSGFAGRDASRAFVTGDCSEAGLVDDVSDLSAAEMLTLHNWLSFYEKNYVCVGRVTGRFYGEDGLPTPALTQVEAAITRGLEANKLQLQEKQTFPPCNAEWSSARGSRLWCSQKSGGVSRDWIGVPRKLYKPGAKEPRCVCVRTTGPPSGQMPDNPPHRNRGDLDHPNLAEYTGCPPLAITCSFPL [CYB5D2]	0.86	-0.244
MRVLVGGGTGFIGTALTQLLNARGHEVTLVSRKPGPGRITWDELAASGLPSCDAAVNLAGENILNPLRRWNETFQKEVIGSRLETTQLLAKAITKAPQPPKAWVLVTGVAYYQPSLTAEYDEDSPGGDFDFFSNLVTKWEAAARLPGDSTRQVVVRSGVVLGRGGGAMGHMLLPFRLGLGGPIGSGHQFFPWIHIGDLAGILTHALEANHVHGVLNGVAPSSATNAEFAQTLGAALGRRAFIPLPSAVVQAVFGRQRAIMLLEGQKVIPQRTLATGYQYSFPELGAALKEIVA [SDR39U1]	-0.328	-0.0339
